Results as given in patent publication US9474782B2, “Use of decorin for increasing muscle mass” (Association Francaise contre les Myopathies, priority 2009, dated 2016).
Values joined by “and” are separate entries in the source; they are usually repeats but may differ in a detail not shown here. Equal values may be shown once.

Experiments:
[1] = test system: mdx mice; assay: Weight of tibialis anterior muscles after intramuscular injection into dystrophic mdx mice; assay type: in vivo, mouse; details: for Activity of decorin fragment on muscle growth (ability to increase muscle mass), in words: decorin fragments, intramuscular injection
Procedure: The protein used was recombinant mouse decorin (mDecorin) of sequence SEQ ID NO: 6, provided by R&D Systems. Twenty-four to forty hours before the injection, 100 μl of 150 mM sterile NaCl and 6 μl of 250 μM ZnCl2 were added to 100 μg of mDecorin powder. The final volume was 106 μl with a final concentration of approximately 1 μg/μl. For the injections into the control muscles a mixture was also prepared of 100 μl of 150 mM NaCl and 6 μl of 250 μM ZnCl2. All these solutions, after being vortexed, were stored at 4° C. In Vivo Injection mdx dystrophic ([…] muscular dystrophy) or gamma-sarcoglycan −/− mice were used that were at least 6 weeks old. 20 μg of mDecorin, i.e. 22 μl of the solution described above (20 μg Decorin+15 μM ZnCl2/22 μl NaCl), were injected into the left tibialis anterior (LTA), the muscle treated. 22 μl of the control solution described above (15 μM ZnCl2/22 μl NaCl) were administered into the control muscle, the right tibialis anterior (RTA). A specific number of days after injection, the mice were sacrificed and the RTA and LTA were removed, weighed then frozen for further histological study. Preparation and Injection of the Solution Containing the Peptide mDCN 31-71: […] It was dissolved at 2 mg/ml in 150 mM NaCl and stored at −80° C. For injections, the preparation protocol was identical to that used for the protein, i.e. 24-40 hours before injection, the desired amount of peptide was removed from the stock solution and mixed with a solution of zinc chloride (ZnCl2) and 150 mM NaCl, to produce a final zinc concentration of 15 μM. The injection protocol was identical to that used for the protein. The RTA and LTA muscles were collected 7 (D7), 14 (D14) or 21 (D21) days after the injection and weighed. The experiment was repeated on three separate mice each time. The results are summarised in the following tables: mdx Mice were Injected Intramuscularly into the TA with the Following Formulations: LTA 1: 65 μg peptide 41 DCN+15 μM ZnCl2/33 μl NaCl; RTA 2: 15 μM ZnCl2/33 μl NaCl. At D18, the mice were sacrificed and the weight of the RTA and LTA muscles was measured.

[2] = test system: gamma-sarcoglycan -/- mice; assay: Weight of tibialis anterior muscles at D18 after intramuscular injection into dystrophic gamma-sarcoglycan -/- mice; assay type: in vivo; details: D18, one value per mouse
Procedure: The protein used was recombinant mouse decorin (mDecorin) of sequence SEQ ID NO: 6, provided by R&D Systems. Twenty-four to forty hours before the injection, 100 μl of 150 mM sterile NaCl and 6 μl of 250 μM ZnCl2 were added to 100 μg of mDecorin powder. The final volume was 106 μl with a final concentration of approximately 1 μg/μl. For the injections into the control muscles a mixture was also prepared of 100 μl of 150 mM NaCl and 6 μl of 250 μM ZnCl2. All these solutions, after being vortexed, were stored at 4° C. In Vivo Injection mdx dystrophic ([…] muscular dystrophy) or gamma-sarcoglycan −/− mice were used that were at least 6 weeks old. 20 μg of mDecorin, i.e. 22 μl of the solution described above (20 μg Decorin+15 μM ZnCl2/22 μl NaCl), were injected into the left tibialis anterior (LTA), the muscle treated. 22 μl of the control solution described above (15 μM ZnCl2/22 μl NaCl) were administered into the control muscle, the right tibialis anterior (RTA). A specific number of days after injection, the mice were sacrificed and the RTA and LTA were removed, weighed then frozen for further histological study. A second series of experiments was performed on four gamma-sarcoglycan −/− mice. The protocol was identical to that described for mdx mice. The mice were sacrificed on D18.

Molecule | Weight of treated muscle (LTA) ([1]; 65 μg peptide + 15 μM ZnCl2/33 μl NaCl intramuscular into left tibialis anterior, D18, one value per mouse) | Growth ([1]; 65 μg peptide + 15 μM ZnCl2/33 μl NaCl intramuscular, treated LTA vs control RTA, D18, one value per mouse) | Activity of decorin fragment on muscle growth (ability to increase muscle mass), in words [1] | Weight of treated muscle (LTA) ([1]; 20 μg mDecorin + 15 μM ZnCl2 intramuscular into left tibialis anterior, Day 7, one value per mouse) | Weight of treated muscle (LTA) ([1]; 20 μg mDecorin + 15 μM ZnCl2 intramuscular into left tibialis anterior, Day 14, one value per mouse) | Weight of treated muscle (LTA) ([1]; 20 μg mDecorin + 15 μM ZnCl2 intramuscular into left tibialis anterior, Day 21, one value per mouse) | Growth in % (100*LTA/RTA) − 100 ([1]; 20 μg mDecorin + 15 μM ZnCl2 intramuscular, treated LTA vs control RTA, Day 7, one value per mouse) | Growth ([1]; 20 μg mDecorin + 15 μM ZnCl2 intramuscular, treated LTA vs control RTA, Day 14, one value per mouse) | Growth (increase in muscle mass) ([1]; 20 μg mDecorin + 15 μM ZnCl2 intramuscular, treated LTA vs control RTA, Day 21, one value per mouse) | Growth (increase in muscle mass) ([1]; 20 μg mDecorin + 15 μM ZnCl2 intramuscular, treated LTA vs control RTA, Day 21, one value per mouse, listed as decorin) | Weight of treated muscle (LTA) ([2]; 20 μg mDecorin + 15 μM ZnCl2 intramuscular into left tibialis anterior) | Growth ([2]; 20 μg mDecorin + 15 μM ZnCl2 intramuscular, treated LTA vs control RTA)
mDCN 31-71: peptide (SEQ ID NO: 7) corresponding to residues 31-71 of murine decorin, zinc-binding N-terminal part, synthesised by NeoMPS (DEASGIIPYDPDNPLISMCPYRCQCHLRVVQCSDLGLDKVP; murine 31-71 DCN) | 0.0583 g and 0.0468 g and 0.05 g | 8.77% and 19.39% and 24.69% | had the required activity | – | – | – | – | – | – | – | – | –
SEQ ID NO:15: fragment of 30 residues (residues 42 to 71 of murine decorin SEQ ID NO: 6) (DNPLISMCPYRCQCHLRVVQCSDLGLDKVP; murine 42-71 DCN) | – | – | also active | – | – | – | – | – | – | – | – | –
mDecorin: recombinant mouse decorin (mDecorin) of sequence SEQ ID NO: 6, provided by R&D Systems (protein, murine DCN) MKATLIFFLLAQVSWAGPFEQRGLFDFMLEDEASGIIPYDPDNPLISMCPYRCQCHLRVVQCSDLGLDKVPWDFPPDTTLLDLQNNKITEIKEGAFKNLKDLHTLILVNNKISKISPEAFKPLVKLERLYLSKNQLKELPEKMPRTLQELRVHENEITKLRKSDFNGLNNVLVIELGGNPLKNSGIENGAFQGLKSLSYIRISDTNITAIPQGLPTSLTEVHLDGNKITKVDAPSLKGLINLSKLGLSFNSITVMENGSLANVPHLRELHLDNNKLLRVPAGLAQHKYIQVVYLHNNNISAVGQNDFCRAGHPSRKASYSAVSLYGNPVRYWEIFPNTFRCVYVRSAIQLGNYK | – | – | – | 0.0682 g and 0.0781 g and 0.0771 g | 0.1124 g and 0.103 g and 0.0911 g | 0.1041 g and 0.0943 g and 0.1003 g | 3.18% and 0.90% and 2.94% | 58.98% and 48.41% and 6.67% | 53.09% and 66.31% and 37.21% | 53.09% and 66.31% | 0.0505 g and 0.0485 g and 0.0593 g and 0.0551 g | 10.75% and 17.43% and 12.31% and 24.10%
